Reference: patent US20240025992A1 (Janssen / Centocor, published 2024)

T1: CD3W147, homodimeric CD3εγ-Fc (biotinylated)
T1 construct: also called recombinant CD3; biotinylated CD3W147
T1 chain: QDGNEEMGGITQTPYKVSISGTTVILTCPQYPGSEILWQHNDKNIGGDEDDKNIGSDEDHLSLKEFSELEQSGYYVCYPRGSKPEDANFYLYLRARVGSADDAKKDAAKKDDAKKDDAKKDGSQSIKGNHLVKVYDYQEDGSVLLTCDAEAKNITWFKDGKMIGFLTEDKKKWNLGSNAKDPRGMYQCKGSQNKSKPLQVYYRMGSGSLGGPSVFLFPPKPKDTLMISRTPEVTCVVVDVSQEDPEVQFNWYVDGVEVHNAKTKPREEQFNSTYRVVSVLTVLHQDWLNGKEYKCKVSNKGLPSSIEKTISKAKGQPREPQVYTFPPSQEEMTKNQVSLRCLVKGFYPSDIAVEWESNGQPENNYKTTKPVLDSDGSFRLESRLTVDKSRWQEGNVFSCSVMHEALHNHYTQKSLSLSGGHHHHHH

B1: DL3B575 (Fc fusion)
scFv: DIVMTQSPLSSPVTLGQPASISCRSSQSLVHSDGNTYLNWLQQRPGQPPRLLIYQISNPFSGVPDRFSGSGAGTDFTLKISRVEAEDVGVYYCMQATQFPHTFGPGTKVEIKGGSEGKSSGSGSESKSTGGSQVQLVQSGAEVKKPGSSVKVSCKASGGTLSSYVISWVRQAPGQGLEWMGGIIPIFGTANYAQKFQDRVTITADKSTNTAYMELTSLTSEDTAVYYCARDPFSDLWGRGTMVTVSS
notes: also called DL3B461 scFv-Fc; not shown: wild-type IgG1 Fc domain
B2: DL3W35, extracellular domain of human DLL3 linked to a C-terminal 6xHis-Tag and a linker (ligand)
chain: AGVFELQIHSFGPGPGPGAPRSPCSARLPCRLFFRVCLKPGLSEEAAESPCALGAALSARGPVYTEQPGAPAPDLPLPDGLLQVPFRDAWPGTFSFIIETWREELGDQIGGPAWSLLARVAGRRRLAAGGPWARDIQRAGAWELRFSYRARCEPPAVGTACTRLCRPRSAPSRCGPGLRPCAPLEDECEAPLVCRAGCSPEHGFCEQPGECRCLEGWTGPLCTVPVSTSSCLSPRGPSSATTGCLVPGPGPCDGNPCANGGSCSETPRSFECTCPRGFYGLRCEVSGVTCADGPCFNGGLCVGGADPDSAYICHCPPGFQGSNCEKRVDRCSLQPCRNGGLCLDLGHALRCRCRAGFAGPRCEHDLDDCAGRACANGGTCVEGGGAHRCSCALGFGGRDCRERADPCAARPCAHGGRCYAHFSGLVCACAPGYMGARCEFPVHPDGASALPAAHPGGGSGGGSGGGSHHHHHH
notes: also called human DLL3 ECD; huDLL3
B3: DL3W34, human DLL4 ECD (Ser27-Pro524), C-10xHis (ligand)
chain: SGVFQLQLQEFINERGVLASGRPCEPGCRTFFRVCLKHFQAVVSPGPCTFGTVSTPVLGTNSFAVRDDSSGGGRNPLQLPFNFTWPGTFSLIIEAWHAPGDDLRPEALPPDALISKIAIQGSLAVGQNWLLDEQTSTLTRLRYSYRVICSDNYYGDNCSRLCKKRNDHFGHYVCQPDGNLSCLPGWTGEYCQQPICLSGCHEQNGYCSKPAECLCRPGWQGRLCNECIPHNGCRHGTCSTPWQCTCDEGWGGLFCDQDLNYCTHHSPCKNGATCSNSGQRSYTCTCRPGYTGVDCELELSECDSNPCRNGGSCKDQEDGYHCLCPPGYYGLHCEHSTLSCADSPCFNGGSCRERNQGANYACECPPNFTGSNCEKKVDRCTSNPCANGGQCLNRGPSRMCRCRPGFTGTYCELHVSDCARNPCAHGGTCHDLENGLMCTCPAGFSGRRCEVRTSIDACASSPCFNRATCYTDLSTDTFVCNCPYGFVGSRCEFPVGLPHHHHHHHHHH
notes: also called huDLL4; TPP0000494661
B4: DL3W33, Recombinant Human DLL1 ECD (Ser22-Gly540), -DI-C-6xHis (ligand)
chain: SGVFELKLQEFVNKKGLLGNRNCCRGGAGPPPCACRTFFRVCLKHYQASVSPEPPCTYGSAVTPVLGVDSFSLPDGGGADSAFSNPIRFPFGFTWPGTFSLIIEALHTDSPDDLATENPERLISRLATQRHLTVGEEWSQDLHSSGRTDLKYSYRFVCDEHYYGEGCSVFCRPRDDAFGHFTCGERGEKVCNPGWKGPYCTEPICLPGCDEQHGFCDKPGECKCRVGWQGRYCDECIRYPGCLHGTCQQPWQCNCQEGWGGLFCNQDLNYCTHHKPCKNGATCTNTGQGSYTCSCRPGYTGATCELGIDECDPSPCKNGGSCTDLENSYSCTCPPGFYGKICELSAMTCADGPCFNGGRCSDSPDGGYSCRCPVGYSGFNCEKKIDYCSSSPCSNGAKCVDLGDAYLCRCQAGFSGRHCDDNVDDCASSPCANGGTCRDGVNDFSCTCPPGYTGRNCSAPVSRCEHAPCHNGATCHERGHGYVCECARGYGGPNCQFLLPELPPGPAVVDLTEKLEGQGDIHHHHHH
notes: also called huDLL1; TPP000049465
B5: CD3W245-HL-E.c. (scFv)
scFv: EVQLVESGGGLVKPGGSLRLSCAASGFTFSRYNMNWVRQAPGKGLEWVSSISTSSNYIYYADSVKGRFTFSRDNAKNSLDLQMSGLRAEDTAIYYCTRGWGPFDYWGQGTLVTVSSGTEGKSSGSGSESKSTDIQMTQSPSSLSASVGDRVTITCRARQSIGTAIHWYQQKPGKAPKLLIKYASESISGVPSRFSGSGSGTDFTLTISSLQPEDFATYYCQQSGSWPYTFGQGTKLEIKGPGGQHHHHHHGAYPYDVPDYAS
notes: Tested as E. coli supernatant; also called CD3W245 scFv-HL; CD3W245 scFv HL expressed in E. coli

Assays:
[1] = biological target: B2; assay: SPR (ProteOn), antibody captured by anti-Fc, DLL3 (DL3W35) titrated
Method: (§1) The association and dissociation were monitored for 5 and 30 minutes, respectively, using a flow rate of 50 μL/min. Kinetic information (on-rate and off-rate constants) were extracted by fitting sensorgrams to the 1:1 Langmuir binding model. Binding affinity (KD) are reported as the ratio of rate constants (koff/kon).

[2] = biological target: B3; assay: SPR (ProteOn), antibody captured by anti-Fc; DLL4 at 100 nM and 1000 nM
Method: as §1

[3] = biological target: B4; assay: SPR (ProteOn), antibody captured by anti-Fc; DLL1 at 100 nM and 1000 nM
Method: as §1

[4] = biological target: T2, DL3W36, human DLL3 EGF6 domain+C-term ECD sequence, HSA Fusion and C-term 6 His tag (human); assay: MSD plate binding assay on coated DLL3 domain-HSA fusions
T2 construct: Fusion with the C34S variant of human serum albumin, plus 6xHis; also called EGF-6 and C-terminal fusion domain; EGF6 + Cterm
Method: The plates were washed with PBS with 0.1% Tween and then blocked with Starting block solution for 30 minutes. […] Antigen bound antibody was detected with sulfo-tagged anti-human antibody (Meso Scale Discovery, R32AJ) for 60 minutes at ambient temperature followed by another PBS wash. Signal acquisition was done in the presence of 1× MSD read buffer T (MSD, Cat #R92TC-1) on the MSD Sector 600 imager with appropriate plate settings. Data was analyzed for the highest binding signal per domain indicating the preferential domain binding.

[5] = biological target: T3, DL3B574; assay: SPR (ProteOn), antibody captured by anti-Fc, DLL3 (DL3W35) titrated
T3 construct: also called DL3B450 scFv-Fc; not shown: wild-type IgG1 Fc domain

[6] = biological target: T3, DL3B574; assay: SPR (ProteOn), antibody captured by anti-Fc; DLL4 at 100 nM and 1000 nM
Method: as §1

[7] = biological target: T3, DL3B574; assay: SPR (ProteOn), antibody captured by anti-Fc; DLL1 at 100 nM and 1000 nM
Method: as §1

[8] = biological target: T1, CD3W147, homodimeric CD3εγ-Fc; assay: ELISA, biotinylated CD3W147 immobilized, scFv in E. coli supernatant
Method: Protein expression was induced by addition of 1 mM IPTG and cultures were grown overnight. After expression, cells were pelleted by centrifugation at 2,200×g for 5 min and supernatants were collected and tested directly for binding to biotinylated CD3W147 by ELISA.
Biotinylated CD3W147 was immobilized on the plate in concentrations ranging from 0.039 μg/mL to 2.5 μg/mL in 2-fold dilutions followed by incubation at room temperature for 45 min. Bound scFv was detected using chicken anti-HA-horseradish peroxidase and then detected with chemiluminescence substrate.

T2 sequence (chain, as listed by the source limits assumed): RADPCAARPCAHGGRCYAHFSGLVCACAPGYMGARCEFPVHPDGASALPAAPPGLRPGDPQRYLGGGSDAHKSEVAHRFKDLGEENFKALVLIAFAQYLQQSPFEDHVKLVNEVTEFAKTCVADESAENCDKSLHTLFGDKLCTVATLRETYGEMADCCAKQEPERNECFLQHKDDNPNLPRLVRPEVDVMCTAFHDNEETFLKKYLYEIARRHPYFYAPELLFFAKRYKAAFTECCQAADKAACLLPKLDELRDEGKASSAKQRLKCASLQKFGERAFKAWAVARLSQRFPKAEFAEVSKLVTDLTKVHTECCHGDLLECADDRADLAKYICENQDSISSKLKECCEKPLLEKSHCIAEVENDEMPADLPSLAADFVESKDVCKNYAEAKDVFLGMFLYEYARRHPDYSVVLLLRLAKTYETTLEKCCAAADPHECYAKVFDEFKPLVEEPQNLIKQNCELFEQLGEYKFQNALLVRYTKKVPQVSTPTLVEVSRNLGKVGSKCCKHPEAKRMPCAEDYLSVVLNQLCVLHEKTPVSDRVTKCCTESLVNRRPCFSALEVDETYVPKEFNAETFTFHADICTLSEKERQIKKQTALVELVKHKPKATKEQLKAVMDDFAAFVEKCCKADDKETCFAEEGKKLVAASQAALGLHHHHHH

Binder: B1
Kd [1]: 0.31 nM
binding result [2]: no binding (tested: 1000 nM)
binding result [3]: no binding (tested: 1000 nM)
binding result [4]: binds

Binder: B2
Kd [5]: 2.37 nM

Binder: B3
binding result [6]: no binding (tested: 1000 nM)

Binder: B4
binding result [7]: no binding (tested: 1000 nM)

Binder: B5
binding result [8]: binds
